# Reference: PMC5062252, “High-resolution crystal structure of the therapeutic antibody pembrolizumab bound to the human PD-1” (Scientific Reports, 2016)
# B1: Fv fragment of pembrolizumab (PemFv) (other)
# VL: EIVLTQSPATLSLSPGERATLSCRASKGVSTSGYSYLHWYQQKPGQAPRLLIYLASYLESGVPARFSGSGSGTDFTLTISSLEPEDFAVYYCQHSRDLPLTFGGGTKVEIKTSENLYFQ
# VH: QVQLVQSGVEVKKPGASVKVSCKASGYTFTNYYMYWVRQAPGQGLEWMGGINPSNGGTNFNEKFKNRVTLTTDSSTTTAYMELKSLQFDDTAVYYCARRDYRFDMGFDYWGQGTTVTVSS
# notes: pembrolizumab light chain variable region (PemVL); additional C-terminal residues retained after TEV cleavage; pembrolizumab heavy chain variable region (PemVH); Fv fragment: VL and VH as two separate chains, not linked; also called pembrolizumab Fv; Keytruda; not shown: His6, C-terminal, cleaved; copies: 1 + 1
# Target: T1, extracellular domain of human PD-1 (PD-1ECD), residues 32-160, C93S (human, C93S (stands in the printed letters))
# T1 construct: additional N-terminal residues retained after restriction site cloning; additional C-terminal residues retained after cloning and TEV cleavage; also called programmed cell death-1; CD279; not shown: His6, C-terminal, cleaved
# T1 chain: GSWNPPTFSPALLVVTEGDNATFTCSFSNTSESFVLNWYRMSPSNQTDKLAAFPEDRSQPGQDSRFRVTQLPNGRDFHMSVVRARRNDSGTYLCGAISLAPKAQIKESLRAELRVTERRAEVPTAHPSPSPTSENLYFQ
# Experiment: SEC; analytical gel filtration of the PemFv/PD-1ECD complex; data not shown
# Details: both partners purified
binder,measurement,value
B1,stoichiometry N,1
